{
  "source": "patent US20200354451A1",
  "target": "human CD19 (human) (UniProt P15391)",
  "sequence (P15391 20-556)": "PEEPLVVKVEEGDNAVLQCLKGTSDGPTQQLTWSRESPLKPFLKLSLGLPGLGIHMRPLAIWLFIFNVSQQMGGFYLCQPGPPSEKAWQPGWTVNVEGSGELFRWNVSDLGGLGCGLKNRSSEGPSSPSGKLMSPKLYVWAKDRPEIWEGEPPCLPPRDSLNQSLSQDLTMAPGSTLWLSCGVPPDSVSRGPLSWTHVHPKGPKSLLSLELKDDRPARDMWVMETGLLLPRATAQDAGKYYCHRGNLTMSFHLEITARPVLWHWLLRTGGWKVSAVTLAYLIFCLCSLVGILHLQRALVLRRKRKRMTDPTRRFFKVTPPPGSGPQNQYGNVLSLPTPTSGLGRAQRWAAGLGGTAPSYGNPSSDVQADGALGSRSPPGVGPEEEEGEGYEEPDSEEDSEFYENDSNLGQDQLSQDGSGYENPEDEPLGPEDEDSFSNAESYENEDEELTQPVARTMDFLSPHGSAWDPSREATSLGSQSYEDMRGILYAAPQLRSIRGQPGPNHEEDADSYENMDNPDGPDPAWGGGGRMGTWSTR",
  "assay": "cell-based or functional assay",
  "data": [
    {"substance": "CD19 CAR (mouse FMC63 scFv, no TF)", "values": [
      {"measurement": "IFN-gamma secretion (ELISA), Hela-CD19 target cells", "result": 8870, "unit": "pg/mL"}
    ]}
  ]
}
